Assay results published in patent publication US20050037947A1, “INHIBITION OF DRUG BINDING TO SERUM ALBUMIN” (priority 2003, published 2005).

Biological target: T1, human serum albumin (Homo sapiens, UniProt P02768)
T1 construct: purchased Aventis, Bridgewater, N.J. Albuminar
Test: Serum albumin binding by surface plasmon resonance (BIACORE 3000)
Details: SPR, immobilized serum albumin, 25° C., Req divided by molecular weight; for reduction of human serum albumin binding of the Fc chimeric protein compared to the unmodified molecule: unmodified molecule bound this many times as much
Method: Analysis of macromolecular interactions was performed using surface plasmon resonance as previously described (Frostell-Karlsson et al. 2000, J. Med. Chem. 43:1986). A BIACORE 3000 instrument (Biacore AB, Piscataway, N.J.) was used and all binding interactions were performed at 25° C. A carboxymethyl-modified dextran (CM5) sensor chip (Biacore AB, Piscataway, N.J.) was used for the analysis. Serum albumin (Albuminar, Aventis, Bridgewater, N.J.) was diluted to 100 μg/mL in 10 mM sodium acetate (pH 4.5) and immobilized to one flowcell of the sensor chip, using amine coupling as described (Frostell-Karlsson et al. 2000, J. Med. Chem. 43:1986). Final immobilization level was approximately 8500 Resonance Units (RU). A “mock-immobilized” surface using a separate flowcell was created using the same procedure in the absence of serum albumin and served as a reference for the binding studies.
Proteins or peptides (analyte) were diluted in HBS-N buffer (10 mM HEPES, pH 7.4; 150 mM NaCl) and injected over the serum albumin and reference surfaces for 3 minutes at a rate of 20 μL/min. After a 35 second dissociation phase, the surface was regenerated by a 30 second pulse of 10 mM glycine (pH 2.0) at a flow rate of 60 μL/min.
The sensorgrams (RU versus time) generated for the mock-coated flowcell were automatically subtracted from the serum albumin-coated sensorgrams. Response at equilibrium (Req) was measured 30 seconds before the end of the injection phase and divided by the molecular weight of the analyte, total response as is in part, a function of molecular weight. (Frostell-Karlsson et al. 2000, J. Med. Chem. 43:1986). Samples tested included T20 linked to Fc (i.e. T20-Fc produced in CHO cells and Fc-T20 produced in E. coli), a VLA4 antagonist linked to Fc, a GnRH peptide linked to Fc, PspA, a bacterial peptide fragment of S. pneumonia surface protein A, peptide YY a peptide involved in regulation of nutrient uptake and an Fc fragment of an immunoglobulin beginning with Cys 226 served as negative controls.

Row | Substance | human serum albumin binding of the unmodified molecule compared to the same molecule linked to Fc (ratio unmodified molecule / Fc chimeric protein) | reduction of human serum albumin binding of the Fc chimeric protein compared to the unmodified molecule
1 | T20: HIV fusion inhibitor, a small peptide, fragment of gp41 (SEQ ID NO: 1) [reference compound] | more than three | –
2 | T20-Fc: T20 linked to Fc, produced in CHO cells | – | more than three
3 | Fc-T20: T20 linked to Fc, produced in E. coli | – | more than three
